# From publication PMC12328718
# Columns and labels:
# [1] = target: T1, SHMT2 WT (UniProt P34897); assay: EMSA; conditions: EMSA: 20 mM HEPES pH 7.4, 150 mM NaCl, 20 ug/ml BSA, 0.1 ug tRNA, RNase inhibitor, 8% glycerol, 25 C, 30 min; 4% native PAGE in 0.5x TBE
# T1 sequence: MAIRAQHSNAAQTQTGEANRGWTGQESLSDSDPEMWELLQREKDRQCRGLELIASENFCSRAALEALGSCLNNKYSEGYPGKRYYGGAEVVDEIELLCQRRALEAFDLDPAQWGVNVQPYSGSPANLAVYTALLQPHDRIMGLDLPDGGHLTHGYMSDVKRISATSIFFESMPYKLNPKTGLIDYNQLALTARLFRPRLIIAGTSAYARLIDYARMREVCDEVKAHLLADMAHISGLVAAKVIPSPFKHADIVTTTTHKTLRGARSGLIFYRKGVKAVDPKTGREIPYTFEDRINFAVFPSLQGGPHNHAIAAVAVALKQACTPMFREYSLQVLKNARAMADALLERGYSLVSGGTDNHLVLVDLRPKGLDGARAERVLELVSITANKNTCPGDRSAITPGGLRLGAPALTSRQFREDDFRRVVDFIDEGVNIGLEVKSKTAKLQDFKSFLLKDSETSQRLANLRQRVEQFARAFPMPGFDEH
# [2] = target: Serine hydroxymethyltransferase 2 (SHMT2) wild type; assay: SEC; Superdex 200 column (16/600), last step of the purification; 20 mM Hepes pH 7.2, 250 mM NaCl, 10% glycerol
# [3] = target: SHMT2 K281S-R284S; assay: as above
substance,measurement,setting,value
GGGAUAAAGAAAAAAGCGGUGAGUGGGCGAACUACAAUUCCCAAAAGGCCACAAAGGGGCCACCACUACGCAUGCGUAGAUCCCUCCCGUUAGCUUUGGCGCCUCAGCGAGCUCUUCUCGCGCAUGCGUUCUCCGAACGGUCUUCUUCCGACAGCUUGCUGCCCUAGACCAGAGUUGGUGGCUGGACCUCCUGCGACUUCCGAGUUGCG [UTR2 RNA],Kd,[1],560 nM
Serine hydroxymethyltransferase 2 (SHMT2) wild type (enzyme),stoichiometry N,[2],4
SHMT2 K281S-R284S (enzyme),stoichiometry N,[3],4
